Measurements taken from the supplement of paper PMC10126150.
± gives the standard deviation of the averaged measurements.

Tested on: ATP
Experiment: switch fluorescence ratio, 500 uM ATP over buffer (Cy3 cluster intensity, sum of 5 cycles each) (fold (ratio)); higher = stronger signal-on switching upon ATP binding; sequences stand for … in TCGTCGGCAGCGTCAGATGTGTATAAGAGACAGTTTTTTTTTTTTTTTTTTTTTTTTT…TC
Conditions: aptamer strand: ATP DNA aptamer (quencher-CACCTGGGGGAGTATTGCGGAGGAAGG + anchor), 100 nM annealed; ATP concentration: 500 uM
Method in brief: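 The fluorescence ratio divides summed target-cycle Cy3 intensity by summed buffer-cycle Cy3 intensity for each cluster and is averaged per switch-domain sequence. Cy3-labelled switching-strand clusters on a modified Illumina MiSeq flow-cell were annealed to 100 nM quencher-labelled ATP aptamer, then imaged in selection buffer and again after 15 min with 500 uM ATP at 22 °C. Five such cycles were run, with NaOH stripping and re-annealing between them, and clusters outside 100-1000 RFU were excluded.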
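Further: ATP exposure 15 min at 22 °C before imaging.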

Row | Sequence | switch fluorescence ratio
1 | TCGATTCAGC | 0.979 ± 0.025
2 | TCGCAGGATA | 1.08 ± 0.012
3 | TCGCAGGCCT | 1.033 ± 0.003
4 | TCGCAGTGGG | 1.12 ± 0.034
5 | TCGCCGCTAT | 2.61 ± 0.34
6 | TCGCCTGGGG | 1.1 ± 0.0046
7 | TCGCGAGTAA | 1.04 ± 0.076
8 | TCGCGCGGAG | 1.04 ± 0.024
9 | TCGCGGAGGG | 0.981 ± 0.019
10 | TCGCGGAGTT | 1 ± 0.011
11 | TCGCGGCGCG | 0.972 ± 0.011
12 | TCGCTCATGG | 1.03 ± 0.015
13 | TCGCTGAGG | 0.9921 ± 0.00077
14 | TCGGAAATTT | 1.002 ± 0.0079
15 | TCGGAACTTG | 1.01 ± 0.07
16 | TCGGAAGGGG | 1.17 ± 0.3
17 | TCGGAATAGA | 1.22 ± 0.26
18 | TCGGAGAAGG | 1.02 ± 0.064
19 | TCGGAGCCAC | 3.16 ± 3
20 | TCGGAGCGGG | 1.102 ± 0.0032
21 | TCGGAGCTTA | 2.977 ± 0.018
22 | TCGGAGCTTC | 4.06 ± 1.4
23 | TCGGAGGGGG | 1.05 ± 0.2
24 | TCGGAGTACT | 1.16 ± 0.03
25 | TCGGATAAGA | 0.995 ± 0.048

Row | Sequence | switch fluorescence ratio
26 | TCGGATAGGG | 1.04 ± 0.071
27 | TCGGCATGAT | 0.998 ± 0.011
28 | TCGGCCGCTG | 1.05 ± 0.064
29 | TCGGCCGGGA | 1.05 ± 0.011
30 | TCGGCCGTCC | 1.056 ± 0.009
31 | TCGGCGAATG | 1.02 ± 0.024
32 | TCGGCGTGGG | 1.01 ± 0.025
33 | TCGGGAACAG | 1.02 ± 0.035
34 | TCGGGAGGTT | 1.01 ± 0.031
35 | TCGGGATACT | 1.86 ± 0.32
36 | TCGGGATAGG | 1.05 ± 0.018
37 | TCGGGCGTAT | 1 ± 0.056
38 | TCGGGGAATG | 1.002 ± 0.0032
39 | TCGGGGAGGA | 0.956 ± 0.026
40 | TCGGGGAGTT | 0.982 ± 0.021
41 | TCGGGGATAG | 0.979 ± 0.047
42 | TCGGGGCAG | 0.976 ± 0.033
43 | TCGGGGCCAT | 1.02 ± 0.062
44 | TCGGGGCGGA | 0.994 ± 0.038
45 | TCGGGGGCAC | 1.45 ± 0.71
46 | TCGGGGGGAT | 1.21 ± 0.36
47 | TCGGGGGGTA | 0.985 ± 0.021
48 | TCGGGGTAAT | 1.03 ± 0.019
49 | TCGGGGTCAG | 0.999 ± 0.02
50 | TCGGGTATTT | 0.998 ± 0.021

Row | Sequence | switch fluorescence ratio
51 | TCGGGTCCGT | 0.982 ± 0.027
52 | TCGGGTTCTC | 0.967 ± 0.0091
53 | TCGGGTTCTT | 1.02 ± 0.027
54 | TCGGGTTTTA | 1.03 ± 0.039
55 | TCGGTAAATG | 1.04 ± 0.018
56 | TCGGTCAGTA | 1.002 ± 0.0036
57 | TCGGTCATGG | 0.993 ± 0.023
58 | TCGGTGACAG | 1.01 ± 0.018
59 | TCGGTGCTGG | 0.977 ± 0.018
60 | TCGGTGGAGA | 1.01 ± 0.024
61 | TCGGTGGAGC | 1.02 ± 0.13
62 | TCGGTGTCGG | 0.98 ± 0.037
63 | TCGGTGTTCA | 1 ± 0.011
64 | TCGGTTAGAT | 0.981 ± 0.057
65 | TCGGTTCTAC | 0.9985 ± 0.0099
66 | TCGGTTGAAG | 0.988 ± 0.017
67 | TCGGTTGTGA | 0.999 ± 0.011
68 | TCGGTTTTTA | 1 ± 0.043
69 | TCGTAAAGAG | 1.022 ± 0.0069
70 | TCGTAAAGGG | 1.01 ± 0.022
71 | TCGTAAAGTT | 0.955 ± 0.02
72 | TCGTAACAGG | 1.01 ± 0.034
73 | TCGTAAGGAA | 1.01 ± 0.02
74 | TCGTAATAGG | 1.118 ± 0.011
75 | TCGTAATCGC | 1.4113 ± 0.0014

Row | Sequence | switch fluorescence ratio
76 | TCGTAATGTG | 1.03 ± 0.033
77 | TCGTACTTTT | 0.989 ± 0.05
78 | TCGTAGCTGT | 1.18 ± 0.052
79 | TCGTAGGAGC | 1.03 ± 0.02
80 | TCGTAGGGTT | 1.01 ± 0.04
81 | TCGTAGGTGG | 1.02 ± 0.063
82 | TCGTATTTGG | 0.993 ± 0.032
83 | TCGTCCTTTT | 0.976 ± 0.03
84 | TCGTCGTAGC | 1.05 ± 0.072
85 | TCGTCTGTGG | 0.974 ± 0.029
86 | TCGTGAGGTG | 1.02 ± 0.068
87 | TCGTGAGTGG | 0.975 ± 0.021
88 | TCGTGCGGGT | 1.001 ± 0.0081
89 | TCGTGCTTGG | 1 ± 0.029
90 | TCGTGGCGCT | 0.995 ± 0.048
91 | TCGTGGGACT | 1.07 ± 0.12
92 | TCGTGGGGGC | 1.07 ± 0.14
93 | TCGTGGTGTT | 1.03 ± 0.021
94 | TCGTGTGGAG | 1.01 ± 0.033
95 | TCGTGTTAGG | 1.02 ± 0.022
96 | TCGTTAAATT | 0.988 ± 0.035
97 | TCGTTAGAAG | 0.9966 ± 0.0052
98 | TCGTTAGAAT | 0.948 ± 0.013
99 | TCGTTATATT | 0.98 ± 0.015
100 | TCGTTCAGTA | 0.958 ± 0.014

Row | Sequence | switch fluorescence ratio
101 | TCGTTCGGCA | 1.06 ± 0.032
102 | TCGTTCTTTT | 0.966 ± 0.019
103 | TCGTTGAATG | 0.956 ± 0.014
104 | TCGTTGGCAA | 2.3 ± 0.23
105 | TCGTTGTGCT | 0.964 ± 0.027
106 | TCGTTTTACT | 1.34 ± 0.44
107 | TCGTTTTGCG | 0.9977 ± 0.0086
108 | TCTAACCTGG | 1.006 ± 0.0042
109 | TCTAAGGGA | 1.01 ± 0.018
110 | TCTAATTACA | 1.04 ± 0.073
111 | TCTACGGGAT | 2.54 ± 0.2
112 | TCTACTAT | 1.06 ± 0.031
113 | TCTACTTTAC | 1.39 ± 0.15
114 | TCTAGAGGGT | 1.01 ± 0.028
115 | TCTAGCAGTT | 1.048 ± 0.0014
116 | TCTAGCCCTG | 1.06 ± 0.073
117 | TCTAGCCGCG | 1.016 ± 0.0044
118 | TCTAGGGCGC | 1.01 ± 0.053
119 | TCTAGTTAAA | 0.986 ± 0.0074
120 | TCTATAATCG | 0.977 ± 0.034
121 | TCTATACCAC | 1.06 ± 0.014
122 | TCTATGCATG | 1.04 ± 0.029
123 | TCTATGCTTC | 1.9 ± 1.1
124 | TCTATGTTAT | 0.999 ± 0.027
125 | TCTATTATTG | 0.98 ± 0.011

Row | Sequence | switch fluorescence ratio
126 | TCTATTGGCT | 1.016 ± 0.0049
127 | TCTATTGGGA | 0.981 ± 0.028
128 | TCTATTTGTG | 0.966 ± 0.02
129 | TCTCAAGGCG | 1.03 ± 0.0089
130 | TCTCAAGTGC | 1.118 ± 0.0083
131 | TCTCAGTGTT | 1.028 ± 0.0064
132 | TCTCATAGTA | 0.997 ± 0.047
133 | TCTCATCGGG | 1.014 ± 0.0037
134 | TCTCATTACG | 1.012 ± 0.0094
135 | TCTCCAGGGG | 2.3 ± 2.1
136 | TCTCCTGGGA | 1.03 ± 0.018
137 | TCTCGCCGGG | 1.02 ± 0.031
138 | TCTCGGGGGG | 1.02 ± 0.065
139 | TCTCGTACCT | 1.19 ± 0.12
140 | TCTCTTTCTG | 0.9729 ± 0.0073
141 | TCTGAAAACT | 1.06 ± 0.0013
142 | TCTGAAATAA | 1.08 ± 0.048
143 | TCTGAACAGG | 1.03 ± 0.014
144 | TCTGAACGGG | 1.02 ± 0.011
145 | TCTGAGGTAT | 1.03 ± 0.034
146 | TCTGAGGTGC | 1.06 ± 0.046
147 | TCTGATGCGT | 1.03 ± 0.0038
148 | TCTGATTATA | 0.987 ± 0.024
149 | TCTGATTGTG | 0.972 ± 0.047
150 | TCTGCACATT | 1.07 ± 0.025

Row | Sequence | switch fluorescence ratio
151 | TCTGCTTTTG | 1.05 ± 0.02
152 | TCTGGAAGGT | 1.04 ± 0.053
153 | TCTGGATAGG | 0.9625 ± 0.0058
154 | TCTGGATATT | 1.01 ± 0.025
155 | TCTGGCAGAT | 1.01 ± 0.028
156 | TCTGGGAGGC | 1.01 ± 0.021
157 | TCTGGGAGGT | 0.975 ± 0.02
158 | TCTGGGGGAA | 1.06 ± 0.15
159 | TCTGGGTGGA | 0.994 ± 0.015
160 | TCTGGTAATT | 1 ± 0.02
161 | TCTGGTATGG | 0.994 ± 0.0034
162 | TCTGGTCATG | 0.995 ± 0.014
163 | TCTGGTGAAA | 1.02 ± 0.054
164 | TCTGGTGACG | 1.04 ± 0.054
165 | TCTGGTTGT | 0.992 ± 0.028
166 | TCTGGTTGTA | 0.995 ± 0.051
167 | TCTGTAAGAA | 1.03 ± 0.041
168 | TCTGTAAGGG | 0.9783 ± 0.0076
169 | TCTGTAAGGT | 0.986 ± 0.02
170 | TCTGTCTCTG | 1.01 ± 0.014
171 | TCTGTGGGGG | 1.01 ± 0.016
172 | TCTGTGGGTT | 0.973 ± 0.051
173 | TCTGTGTTGG | 0.98 ± 0.02
174 | TCTGTTCATG | 1.001 ± 0.0081
175 | TCTGTTGGAC | 0.997 ± 0.024

Row | Sequence | switch fluorescence ratio
176 | TCTTAACGGC | 1.04 ± 0.05
177 | TCTTACGAAG | 1.27 ± 0.27
178 | TCTTACGGCT | 1.03 ± 0.033
179 | TCTTAGGCTG | 1.01 ± 0.018
180 | TCTTAGGTTG | 1.028 ± 0.0062
181 | TCTTAGTTCA | 0.9825 ± 0.0062
182 | TCTTATGTTA | 0.989 ± 0.021
183 | TCTTCTGGGA | 1.026 ± 0.0038
184 | TCTTGAGGGG | 0.982 ± 0.034
185 | TCTTGATTGT | 0.974 ± 0.017
186 | TCTTGCTTC | 1.0084 ± 0.00091
187 | TCTTGGCACA | 1.036 ± 0.0061
188 | TCTTGGGGCA | 1.01 ± 0.019
189 | TCTTGGGTTT | 0.992 ± 0.012
190 | TCTTGGTTGA | 0.968 ± 0.02
191 | TCTTGTCGTT | 1.019 ± 0.0077
192 | TCTTGTGAGG | 1.04 ± 0.13
193 | TCTTGTTTGA | 1.008 ± 0.0059
194 | TCTTGTTTGG | 0.994 ± 0.049
195 | TCTTTATATT | 1.02 ± 0.048
196 | TCTTTATTAA | 0.989 ± 0.011
197 | TCTTTCACGC | 1.09 ± 0.085
198 | TCTTTCTGGG | 1.03 ± 0.021
199 | TCTTTGACAG | 1.02 ± 0.015
200 | TCTTTGACGC | 1.21 ± 0.013
